Target: 14-3-3ζ of the Tni-FNL-produced BRAF complexes (human) (UniProt P63104)
Experiment: cryo-EM structure; BRAF:14-3-3_(2):MEK complex co-expressed in Tni-FNL insect cells and purified as a complex; 3.8 Å

A stoichiometry N of 2 was found for “14-3-3ζ of the Tni-FNL-produced BRAF complexes (from UniProt P63104 1-245) (natural protein)” in this work.
